Experiments:
[1] = target: human LAG-3 protein (Example 3) (human) (UniProt P18627); test: FACS; blocking of LAG-3 protein binding to MHC-II on Raji cells
[2] = target: human LAG-3 protein (Example 3) (human) (UniProt P18627); test: SPR
[3] = target: human LAG-3 on cells (human) (UniProt P18627); test: FACS on cell surface human LAG-3
[4] = target: human LAG-3 on cells (human) (UniProt P18627); test: FACS affinity test on cell surface human LAG-3
[5] = target: human LAG-3 protein (Example 3) (human) (UniProt P18627); test: ELISA; blocking of LAG-3 protein binding to LSECtin
[6] = target: human LAG-3 protein (Example 3) (human) (UniProt P18627); test: ELISA; blocking of LAG-3 protein binding to Galectin-3

Sequence of human LAG-3 protein (Example 3) (human) (P18627 23-450 limits assumed): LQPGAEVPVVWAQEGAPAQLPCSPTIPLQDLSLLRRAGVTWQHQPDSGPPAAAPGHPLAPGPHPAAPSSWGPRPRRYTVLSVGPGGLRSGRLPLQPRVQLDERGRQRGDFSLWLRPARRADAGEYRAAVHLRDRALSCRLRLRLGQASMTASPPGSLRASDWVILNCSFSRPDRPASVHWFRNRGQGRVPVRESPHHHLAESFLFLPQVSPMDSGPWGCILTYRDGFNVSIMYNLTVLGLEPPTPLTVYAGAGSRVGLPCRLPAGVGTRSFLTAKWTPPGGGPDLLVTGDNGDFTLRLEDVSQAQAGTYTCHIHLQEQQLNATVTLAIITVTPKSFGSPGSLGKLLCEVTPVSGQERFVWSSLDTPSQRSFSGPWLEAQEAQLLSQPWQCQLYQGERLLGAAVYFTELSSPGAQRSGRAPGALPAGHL
Sequence of human LAG-3 on cells (human) (P18627 23-525): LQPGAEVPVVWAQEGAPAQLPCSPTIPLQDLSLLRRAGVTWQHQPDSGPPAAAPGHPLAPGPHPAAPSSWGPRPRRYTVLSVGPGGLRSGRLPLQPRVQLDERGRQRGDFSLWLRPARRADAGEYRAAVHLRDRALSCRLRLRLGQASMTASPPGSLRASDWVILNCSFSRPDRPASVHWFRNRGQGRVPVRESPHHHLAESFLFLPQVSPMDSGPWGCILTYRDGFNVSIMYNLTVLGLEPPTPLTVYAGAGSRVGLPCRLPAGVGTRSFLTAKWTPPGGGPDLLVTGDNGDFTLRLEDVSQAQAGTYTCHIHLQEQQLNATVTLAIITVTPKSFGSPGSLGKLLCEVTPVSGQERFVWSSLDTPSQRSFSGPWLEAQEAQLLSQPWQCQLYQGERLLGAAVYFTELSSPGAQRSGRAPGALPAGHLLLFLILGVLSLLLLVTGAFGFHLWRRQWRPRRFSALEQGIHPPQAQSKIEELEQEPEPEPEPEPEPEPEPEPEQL

EC50 [1]: 1250 pM | Kd [2]: 497 pM | EC50 [3]: 610 pM | Kd [4]: 580 pM | EC50 [5]: 590 pM | EC50 [6]: 790 pM
B1: BMK7 (antibody, INN chains, looked up, V domains shown)
VH: QVQLVESGGGVVQPGRSLRLSCVASGFTFSSYGMHWVRQAPGKGLEWVAIIWYDGSNKYYADSVKGRFTISRDNSKNTQYLQMNSLRAEDTAVYYCASVATSGDFDYYGMDVWGQGTTVTVSS
VL: EIVLTQSPATLSLSPGERTTLSCRASQRISTYLAWYQQKPGQAPRLLIYDASKRATGIPARFSGSGSGTGFTLTISSLEPEDFAVYYCQQRSNWPLTFGGGTKVEIK

— patent US20210115138A1
